Data taken from patent US20090022728A1 (RINAT NEUROSCIENCE, published 2009).

Legend:
[1] = biological target: T1, biotinylated Aβ1-40 peptide (biotinylated (N-biotinylated in Example 7)); test: SPR, Fab over Aβ1-40 on SA chip
T1 construct: captured on streptavidin (SA) chip; also called Biotinylated Aβ peptide 1-40; Aβ1-40 on SA chip
Description: (§1) Affinities of 9TL Fab fragment and its variants Fab fragments were determined by Surface Plasmon Resonance (SPR) system (BIAcore 3000™, BIAcore, Inc., Piscaway, N.J.). SA chips (streptavidin) were used according to the supplier's instructions. Biotinylated Aβ peptide 1-40 was diluted into HBS-EP (10 mM HEPES pH 7.4, 150 mM NaCl, 3 mM EDTA, 0.005% P20) and injected over the chip at a concentration of 0.005 mg/mL. Using variable flow time across the individual chip channels, two ranges of antigen density were achieved: 10-200 response units (RU) for detailed kinetic studies and 500-600 RU for concentration studies and screening. […] HBS-EP buffer was used as running buffer for all the BIAcore assays. […] The concentrations of the Fab proteins were determined by ELISA and/or SDS-PAGE electrophoresis using a standard Fab of known concentration (determined by amino acid analysis). Kinetic association rates (kₒₙ) and dissociation rates (koff) were obtained simultaneously by fitting the data to a 1:1 Langmuir binding model (Karlsson, R. Roos, H. Fagerstam, L. Petersson, B. (1994). Methods Enzymology 6. 99-110) using the BIAevaluation program. Equilibrium dissociation constant (KD) values were calculated as koff/kₒₙ.
(§2) All amino acid substitutions of the variants shown in Table 3 are described relative to the sequence of 9TL. KD and other kinetic parameters were determined by BIAcore analysis described above with Aβ₁₋₄₀ immobilized on SA chip.

[2] = biological target: T1, biotinylated Aβ1-40 peptide; test: SPR, Fab over Aβ1-40 on SA chip; KD=koff/kon
Description: as §1, §2

[3] = biological target: T1, biotinylated Aβ1-40 peptide; test: SPR, Fab over Aβ1-40 on SA chip; kon may be assumed = 9TL (footnote 2)
Description: as §1, §2

Aβ1-40 peptide = biological target: T2, Aβ1-40 peptide; test: ELISA, nonbiotinylated peptide on plate
T2 construct: synthetic peptide, not biotinylated; also called 1-40 (WT); beta amyloid 1-40
T2 sequence (peptide, as listed by the source): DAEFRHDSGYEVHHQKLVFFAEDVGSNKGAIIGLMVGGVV
Description: (§3) ELISA was used for measuring binding of antibody 6G and variants to nonbiotinylated Aβ peptides. NUNC maxisorp plates were coated with 2.5 ug/ml of Aβ peptides in PBS pH 7.4 for more than 1 hour at 4° C. Plates were blocked with 1% BSA in PBS buffer pH 7.4. Primary antibody (from cell supernatants, serum containing anti-Aβ antibody, or purified full antibody or Fabs at desired dilution) was incubated with the immobilized Aβ peptides for 1 h at room temperature. After washing, the plates were incubated with secondary antibody, a HRP conjugated goat anti-human kappa chain antibody (MP Biomedicals, 55233) at 1:5000 dilution. After washing, bound secondary antibody was measured by adding TMB substrate (KPL, 50-76-02, 50-65-02). The HRP reaction was stopped by adding 1M phosphoric acid and absorbance at 450 nm was measured.
(§4) All amino acid substitutions of the variants shown in Table 8 are described relative to the sequence of 6G. Binding was determined by ELISA described above with nonbiotinylated Aβ₁₋₄₀ or Aβ₁₋₄₂ immobilized on the surface of an ELISA plate.

Aβ1-42 peptide = biological target: T3, Aβ1-42 peptide; test: ELISA, nonbiotinylated peptide on plate
T3 construct: also called 1-42 (WT)
T3 sequence (peptide, as listed by the source): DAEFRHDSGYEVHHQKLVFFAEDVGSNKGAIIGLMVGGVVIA
Description: as §3, §4

Row | Binder | A450 ELISA (Aβ1-40 peptide) [A450] | A450 ELISA (Aβ1-42 peptide) [A450] | also measured
1 | 9TL variant W1 Fab (Fab, V domains shown, Fab; human IgG2 CH1 and kappa CL) VH: QVQLVQSGAEVKKPGASVKVSCKASGYYTEAYYIHWVRQAPGQGLEWMGRIDPATGNTKYAPRLQDRVTMTRDTSTSTVYMELSSLRSEDTAVYYCASLYSLPVYWGQGTTVTVSS VL: DVVMTQSPLSLPVTLGQPASISCKSSQSLLASDSKTYLNWFQQRPGQSPRRLIYQISRLDPGVPDRFSGSGSGTDFTLKISRVEAEDVGVYYCLQGTHYPVTFGQGTRLEIKR |  |  | koff [1]: 0.009 s⁻¹; Kd [2]: 28.3 nM; kon [3]: 318000 M⁻¹ s⁻¹
2 | 9TL variant W8 Fab (Fab, V domains shown, Fab; human IgG2 CH1 and kappa CL) VH: QVQLVQSGAEVKKPGASVKVSCKASGYYTEAYYIHWVRQAPGQGLEWMGRIDPATGNTKYAPRLQDRVTMTRDTSTSTVYMELSSLRSEDTAVYYCASLYSLPVYWGQGTTVTVSS VL: DVVMTQSPLSLPVTLGQPASISCKSSQSLLHSDSATYLNWFQQRPGQSPRRLIYQISRLDPGVPDRFSGSGSGTDFTLKISRVEAEDVGVYYCLQGTHYPVTFGQGTRLEIKR |  |  | koff [1]: 0.0038 s⁻¹; Kd [2]: 11.9 nM; kon [3]: 318000 M⁻¹ s⁻¹
3 | 9TL variant W5 Fab (Fab, V domains shown, Fab; human IgG2 CH1 and kappa CL) VH: QVQLVQSGAEVKKPGASVKVSCKASGYYTEAYYIHWVRQAPGQGLEWMGRIDPATGNTKYAPRLQDRVTMTRDTSTSTVYMELSSLRSEDTAVYYCASLYSLPVYWGQGTTVTVSS VL: DVVMTQSPLSLPVTLGQPASISCKSSQSLLHSDAATYLNWFQQRPGQSPRRLIYQISRLDPGVPDRFSGSGSGTDFTLKISRVEAEDVGVYYCLQGTHYPVTFGQGTRLEIKR |  |  | koff [1]: 0.004 s⁻¹; Kd [2]: 12.6 nM; kon [3]: 318000 M⁻¹ s⁻¹
4 | 6G heavy chain variant 3C (D103G) (antibody, V domains shown) VH: QVQLVQSGAEVKKPGASVKVSCKASGYTFTTYAIHWVRQAPGQGLEWMGFTSPYSGVSNYNQKFKGRVTMTRDTSTSTVYMELSSLRSEDTAVYYCARFDNYGRGYVRDYWGQGTLVTVS VL: DIVMTQSPDSLAVSLGERATINCRASESVDNDRISFLNWYQQKPGQPPKLLIYAATKQGTGVPDRFSGSGSGTDFTLTISSLQAEDVAVYYCQQSKEFPWSFGGGTKVEIKR | 2.3 | 0.76 | 
5 | 6G heavy chain variant 4D (R104Q) (antibody, V domains shown) VH: QVQLVQSGAEVKKPGASVKVSCKASGYTFTTYAIHWVRQAPGQGLEWMGFTSPYSGVSNYNQKFKGRVTMTRDTSTSTVYMELSSLRSEDTAVYYCARFDNYDQGYVRDYWGQGTLVTVS VL: DIVMTQSPDSLAVSLGERATINCRASESVDNDRISFLNWYQQKPGQPPKLLIYAATKQGTGVPDRFSGSGSGTDFTLTISSLQAEDVAVYYCQQSKEFPWSFGGGTKVEIKR | 2.45 | 1 | 
6 | 6G light chain variant 7F (Q94K) (antibody, V domains shown) VH: QVQLVQSGAEVKKPGASVKVSCKASGYTFTTYAIHWVRQAPGQGLEWMGFTSPYSGVSNYNQKFKGRVTMTRDTSTSTVYMELSSLRSEDTAVYYCARFDNYDRGYVRDYWGQGTLVTVS VL: DIVMTQSPDSLAVSLGERATINCRASESVDNDRISFLNWYQQKPGQPPKLLIYAATKQGTGVPDRFSGSGSGTDFTLTISSLQAEDVAVYYCQKSKEFPWSFGGGTKVEIKR | 0.12 |  | 
7 | 6G heavy chain variant 10G (Y102I) (antibody, V domains shown) VH: QVQLVQSGAEVKKPGASVKVSCKASGYTFTTYAIHWVRQAPGQGLEWMGFTSPYSGVSNYNQKFKGRVTMTRDTSTSTVYMELSSLRSEDTAVYYCARFDNIDRGYVRDYWGQGTLVTVS VL: DIVMTQSPDSLAVSLGERATINCRASESVDNDRISFLNWYQQKPGQPPKLLIYAATKQGTGVPDRFSGSGSGTDFTLTISSLQAEDVAVYYCQQSKEFPWSFGGGTKVEIKR | 0.63 | 0.22 | 
8 | 6G light chain variant 10E (S95L) (antibody, V domains shown) VH: QVQLVQSGAEVKKPGASVKVSCKASGYTFTTYAIHWVRQAPGQGLEWMGFTSPYSGVSNYNQKFKGRVTMTRDTSTSTVYMELSSLRSEDTAVYYCARFDNYDRGYVRDYWGQGTLVTVS VL: DIVMTQSPDSLAVSLGERATINCRASESVDNDRISFLNWYQQKPGQPPKLLIYAATKQGTGVPDRFSGSGSGTDFTLTISSLQAEDVAVYYCQQLKEFPWSFGGGTKVEIKR | 0.08 |  | 
9 | 6G light chain variant 5B (Q94G) (antibody, V domains shown) VH: QVQLVQSGAEVKKPGASVKVSCKASGYTFTTYAIHWVRQAPGQGLEWMGFTSPYSGVSNYNQKFKGRVTMTRDTSTSTVYMELSSLRSEDTAVYYCARFDNYDRGYVRDYWGQGTLVTVS VL: DIVMTQSPDSLAVSLGERATINCRASESVDNDRISFLNWYQQKPGQPPKLLIYAATKQGTGVPDRFSGSGSGTDFTLTISSLQAEDVAVYYCQGSKEFPWSFGGGTKVEIKR | 0.09 |  | 
10 | 6G heavy chain variant 6F (R104S) (antibody, V domains shown) VH: QVQLVQSGAEVKKPGASVKVSCKASGYTFTTYAIHWVRQAPGQGLEWMGFTSPYSGVSNYNQKFKGRVTMTRDTSTSTVYMELSSLRSEDTAVYYCARFDNYDSGYVRDYWGQGTLVTVS VL: DIVMTQSPDSLAVSLGERATINCRASESVDNDRISFLNWYQQKPGQPPKLLIYAATKQGTGVPDRFSGSGSGTDFTLTISSLQAEDVAVYYCQQSKEFPWSFGGGTKVEIKR | 2.28 | 0.62 | 
11 | 6G light chain variant 6E (E97P) (antibody, V domains shown) VH: QVQLVQSGAEVKKPGASVKVSCKASGYTFTTYAIHWVRQAPGQGLEWMGFTSPYSGVSNYNQKFKGRVTMTRDTSTSTVYMELSSLRSEDTAVYYCARFDNYDRGYVRDYWGQGTLVTVS VL: DIVMTQSPDSLAVSLGERATINCRASESVDNDRISFLNWYQQKPGQPPKLLIYAATKQGTGVPDRFSGSGSGTDFTLTISSLQAEDVAVYYCQQSKPFPWSFGGGTKVEIKR | 0.12 |  | 
12 | 6G heavy chain variant 9E (N101R) (antibody, V domains shown) VH: QVQLVQSGAEVKKPGASVKVSCKASGYTFTTYAIHWVRQAPGQGLEWMGFTSPYSGVSNYNQKFKGRVTMTRDTSTSTVYMELSSLRSEDTAVYYCARFDRYDRGYVRDYWGQGTLVTVS VL: DIVMTQSPDSLAVSLGERATINCRASESVDNDRISFLNWYQQKPGQPPKLLIYAATKQGTGVPDRFSGSGSGTDFTLTISSLQAEDVAVYYCQQSKEFPWSFGGGTKVEIKR |  | 0.26 | 
13 | 6G heavy chain variant 4B (R104F) (antibody, V domains shown) VH: QVQLVQSGAEVKKPGASVKVSCKASGYTFTTYAIHWVRQAPGQGLEWMGFTSPYSGVSNYNQKFKGRVTMTRDTSTSTVYMELSSLRSEDTAVYYCARFDNYDFGYVRDYWGQGTLVTVS VL: DIVMTQSPDSLAVSLGERATINCRASESVDNDRISFLNWYQQKPGQPPKLLIYAATKQGTGVPDRFSGSGSGTDFTLTISSLQAEDVAVYYCQQSKEFPWSFGGGTKVEIKR | 2.48 | 0.71 | 
14 | 6G light chain variant 7E (Q94R) (antibody, V domains shown) VH: QVQLVQSGAEVKKPGASVKVSCKASGYTFTTYAIHWVRQAPGQGLEWMGFTSPYSGVSNYNQKFKGRVTMTRDTSTSTVYMELSSLRSEDTAVYYCARFDNYDRGYVRDYWGQGTLVTVS VL: DIVMTQSPDSLAVSLGERATINCRASESVDNDRISFLNWYQQKPGQPPKLLIYAATKQGTGVPDRFSGSGSGTDFTLTISSLQAEDVAVYYCQRSKEFPWSFGGGTKVEIKR | 0.09 |  | 
15 | 6G heavy chain variant 8H (N101H) (antibody, V domains shown) VH: QVQLVQSGAEVKKPGASVKVSCKASGYTFTTYAIHWVRQAPGQGLEWMGFTSPYSGVSNYNQKFKGRVTMTRDTSTSTVYMELSSLRSEDTAVYYCARFDHYDRGYVRDYWGQGTLVTVS VL: DIVMTQSPDSLAVSLGERATINCRASESVDNDRISFLNWYQQKPGQPPKLLIYAATKQGTGVPDRFSGSGSGTDFTLTISSLQAEDVAVYYCQQSKEFPWSFGGGTKVEIKR |  | 0.19 | 
